Like-named read-outs stand apart in the source and are kept apart here.
Tests used:
Type in all cases: biochemical
[1] = biological target: T1, human neutrophil elastase (Homo sapiens, UniProt P08246); experiment: Determination of Ki value against human neutrophil elastase (fluorogenic substrate MeOSuc-Ala-Ala-Pro-Val-7AMC); conditions: 30° C., pH 7.5, purified peptides with recovered activity, read-out: Inhibitory Activity against Human Neutrophil Elastase Ki
T1 sequence (P08246 30-267): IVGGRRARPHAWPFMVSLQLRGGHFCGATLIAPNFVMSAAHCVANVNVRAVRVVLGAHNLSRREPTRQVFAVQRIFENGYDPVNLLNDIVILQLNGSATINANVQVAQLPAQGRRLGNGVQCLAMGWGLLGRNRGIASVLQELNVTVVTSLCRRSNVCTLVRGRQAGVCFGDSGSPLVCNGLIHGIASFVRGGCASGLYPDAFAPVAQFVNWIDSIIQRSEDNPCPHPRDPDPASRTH
Procedure: Determination of Ki value of the samples of purified peptides of Example 7 against human neutrophil elastase was accomplished as follows.
10 μl of solution of human neutrophil elastase (Attends Research), (the concentration of which was adjusted to 25 μM with the following buffer), and 10 μl of test sample (the concentration of which was appropriately adjusted) were added to buffer containing 30 μl of 100 mM Tris-HCl (pH 7.5), 500 mM NaCl, 0.01% BSA, and left for 20 minutes at 30° C. Then, 200 μl of MeOSuc-Ala-Ala-Pro-Val-7AMC solution (Cambridge Research Biochemicals) containing 1% dimethyl-sulfoxide (hereinafter referred to as "DMSO") was added to the mixture to adjust the concentration thereof to 0.2 mM, 0.3 mM and 0.4 mM, and reacted at 30° C. Fluorescence at 450 nm excited at 365 nm was measured over 0 to 3 minutes with a spectrophotofluorometer (F-3000, HITACHI), and an initial reaction velocity was calculated. Ki value was determined by preparing a graph having a vertical axis of the reciprocal of initial reaction velocity and a horizontal axis of sample concentration, and then plotting on the graph lines for each of the three substrate concentrations and reading the intersection point of the three lines so obtained.

bovine pancreas trypsin = biological target: T2, bovine pancreas trypsin (Bos taurus, UniProt P00760); experiment: Determination of Ki value against bovine pancreas trypsin (substrate Bz-DL-Arg-pNA); conditions: 30° C., pH 8.0
T2 construct: purchased Washington Biochemicals; host or cells: bovine pancreas
T2 sequence (P00760 24-246): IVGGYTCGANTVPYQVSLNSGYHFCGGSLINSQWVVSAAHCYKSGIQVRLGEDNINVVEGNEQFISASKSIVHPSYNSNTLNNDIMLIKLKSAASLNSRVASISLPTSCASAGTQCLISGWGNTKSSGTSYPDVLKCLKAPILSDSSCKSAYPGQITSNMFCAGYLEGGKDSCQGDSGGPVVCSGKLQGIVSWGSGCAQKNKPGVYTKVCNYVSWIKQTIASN
Procedure: Furthermore, the Ki value against trypsin was determined as follows.
Firstly, buffer containing 20 μl of 10 mM CaCl2, 50 mM Tris-HCl (pH 8.0) was mixed with 10 μl of test sample (1.2~6 μM) and 10 μl of 4.2 μM bovine pancreas trypsin solution (prepared by dissolving bovine pancreas trypsin in 1 mM HCl; Washington Biochemicals), and incubated at 30° C. for three minutes. 110 μl of 1M Tris-HCl (pH 8.0) buffer containing 100 mM CaCl2 was added to this solution, then 350 μl of any of 0.6 mM, 1.2 mM and 2.3 mM Bz-DL-Arg-pNA.HCl (Nakaraitesk) solution (containing 10% DMSO) was added, and reacted at 30° C. Change on absorbance at 405 nm over time was recorded, and the initial reaction velocity of the enzyme was determined therefrom. Then, the Ki value against trypsin was determined according to a procedure which was similar to the procedure for human neutrophil elastase above.

[2] = biological target: T1, human neutrophil elastase; experiment: Resistance against oxidizer: inhibitory rate against human neutrophil elastase after treatment with chloro-succinate-imide; conditions: for Inhibitory Rate against Human Neutrophil Elastase (%): amount of inhibitor 20 p mole
Procedure: 5 μl of peptide sample, the concentration of which was adjusted appropriately, was mixed with 5 μl of 5 mM chloro-succinate-imide [prepared by dissolving chloro-succinate-imide (Nakaraitesk) in 100 mM Tris-HCl (pH 7.5) buffer containing 500 mM NaCl], then left for 10 minutes at room temperature, and then treated with the oxidizer. Then, 5 μl of human neutrophil elastase, concentration of which was adjusted with said buffer, and 35 μl of said buffer were further added thereto, and left for 15 minutes at 30° C. 450 μl of MeOSuc-Ala-Ala-Pro-Val-pNA (Cambridge Research Bio-Chemicals) solution (containing 1% DMSO), the concentration of which was adjusted to 0.1 mM with said buffer, was added thereto and further reacted for 30 minutes at 30° C. 40 μl of acetic acid was added and absorbance at 405 nm was measured. An inhibition against an activity of human neutrophil elastase in the samples treated with the oxidizer was indicated as an inhibitory rate (%) calculated by the following formula. [formula] A: Absorbance obtained from sample not containing inhibitor. B: Absorbance obtained from sample containing inhibitor.

Molecule	Ki ([1]; listed as HI-8) [nM]	Ki [1] [nM]	Ki (bovine pancreas trypsin) [nM]	Inhibitory Rate against Human Neutrophil Elastase (%) ([2]; chloro-succinate-imide 0 mM)	Inhibitory Rate against Human Neutrophil Elastase (%) ([2]; chloro-succinate-imide 2.5 mM)	inhibitory activity against human neutrophil elastase under oxidizing conditions (in words) ([2]; treated with oxidizer chloro-succinate-imide)
R15: Recombinant HI-8 peptide (C-terminal domain Thr78-Leu143 of UTI) expressed by using the plasmid pCD17R15	~690	690	360	–	–	–
Ulinastatin (protein, UniProt P02760 206-352, looked up, Inter-alpha-trypsin inhibitor light chain) Inter-alpha-trypsin inhibitor …: AVLPQEEEGSGGGQLVTEVTKKEDSCQLGYSAGPCMGMTSRYFYNGTSMACETFQYGGCMGNGNNFVTEKECLQTCRTVAACNLPIVRGPCRAFIQLWAFDAVKGKCVLFPYGGCQGNGNKFYSEKECREYCGVPGDGDEELLRFSN	–	120	920	72	5	oxidized and inactivated completely

— US5541288A, “Peptide having elastase inhibitory activity and producing method thereof” (Nissin Shokuhin Kabushiki Kaisha, priority 1993, dated 1996)
